Consider 5 molecules from US20130157289A1 (Genentech, published 2013).

By Kd is commonly meant the free concentration of one partner at which half of the binding sites on the other are occupied at equilibrium, for simple one-to-one binding.

Where a chain is given by its changes, count along the chain named. In names and notes the source's numbering stands.

The target of experiment [1] is T1, human STEAP-1 (human, UniProt Q9UHE8 1-339).
T1 construct: Six-transmembrane cell surface antigen; Exogenous full length STEAP-1 stably expressed in 293 cells (LB50, LB48, LB53) and PC3 cells (PS5.4); endogenous in LNCaP / LNCaP-BR cells; also called Six Transmembrane Epithelial Antigen of the Prostate 1
As to the kind of experiment: FACS of display-normalised Fab phage, aligned histograms; no cell name on the panel, traces as in FIG. 6A (LB50). How it is done:
Phage expressing Fab variants were first assessed for their Fab display level using an phage ELISA used to detect a […] fused to the light chain of the Fab. MaxiSorp microtiter plates were coated with anti-gD 1766 at 10 μg/ml in PBS over night and then blocked with Casein Blocker. Phage from culture supernatants were serially diluted in PBST containing 0.5% BSA in a tissue culture microtiter plate and transferred to the coated wells for 1 h to capture the Fab displaying phage. The plate was washed with PBST and HRP conjugated anti-M13 (Amersham Pharmacia Biotech) was added (1:5000 in PBST containing 0.5% BSA) for 40 min. The plate was washed with PBST and developed by adding Tetramethylbenzidine substrate (Kirkegaard and Perry Laboratories, Gaithersburg, Md.). The absorbance at 405 nm was used as an estimate of the Fab display level on the surface of the phage. Phage preparations were normalized for display by dilution. Low displaying phage (e.g. the chimera) were used neat for FACS analysis.
For FACS analysis of phage binding, cells were removed from the plate using 2 mM EDTA, collected in a 15 mL conical bottom tube and pelleted by centrifugation. Cells (5×10⁵ cells per sample) were re-suspended in 100 μL of phage (normalized by display level) in FACS buffer (1% FBS, PBS with 2 mM EDTA) and incubated for 1-2 hours on ice. Samples were washed twice with FACS buffer by centrifugation. Anti-M13 5G7 control antibody (Genentech, Inc. South San Francisco, Calif.) was added at 2 μg/mL and incubated on ice for at least 45 minutes. Samples were washed twice with FACS buffer by centrifugation. A 1:200 dilution of anti-mouse PE (R-phycoerythrin goat anti-mouse IgG Fcy Fragment, Jackson Immunoresearch) was added and incubated on ice for 30 minutes. Samples were again washed twice with FACS buffer by centrifugation and analyzed by FACS.

Experiment [2] deals with T1, human STEAP-1. As to the kind of experiment: Scatchard analysis on 293-LB50 cells, average value. An excerpt:
(§1) IgG was purified with Protein G affinity chromatography.

For experiment [3], the target named is T1, human STEAP-1. Nature of the experiment: Scatchard analysis on LNCaP-BR cells, average value.
Source text: as §1

Experiment [4] addresses T1, human STEAP-1. Nature of the experiment: Scatchard analysis on LNCaP.BR cells, Assay 740; displacement curve and Scatchard plot.
Source text: as §1

Experiment [5] has as its target T1, human STEAP-1. As to the kind of experiment: Scatchard analysis on 293.LB50 cells, Assay 737; displacement curve and Scatchard plot.
Source text: as §1

Experiment [6] addresses T1, human STEAP-1. Nature of the experiment: Scatchard analysis on 293.LB50 cells, Assay 738; displacement curve and Scatchard plot.
Source text: as §1

The target in experiment [7] is T1, human STEAP-1. As to the kind of experiment: Scatchard analysis on 293 cells transiently expressing human STEAP-1 (293-Transient Human Steap1).
Source text: as §1

Experiment [8] addresses T2, cynomolgus monkey STEAP-1 (cynomolgus monkey, UniProt Q9UHE8 1-339 (human entry)).
T2 construct: the expressing cell line is not described; also called cyno STEAP-1
As to the kind of experiment: Scatchard analysis on 293 cells transiently expressing cynomolgus STEAP-1 (293-Transient Cyno Steap1); side note: Same Affinity for Human & Cyno.

Experiment [9] concerns the target T1, human STEAP-1. As to the kind of experiment: Scatchard analysis on LNCaP.BR cells, Assay 739; displacement curve (Bound/Total against Total, nM) and Scatchard plot (Bound/Free against Bound, pM).
Source text: as §1

The target of experiment [10] is T1, human STEAP-1. As to the kind of experiment: Scatchard analysis on 293 STEAP-1 NT LB50 cells.
Source text: as §1

T1 sequence (Q9UHE8 other isoform, or with tags, fused parts or gaps): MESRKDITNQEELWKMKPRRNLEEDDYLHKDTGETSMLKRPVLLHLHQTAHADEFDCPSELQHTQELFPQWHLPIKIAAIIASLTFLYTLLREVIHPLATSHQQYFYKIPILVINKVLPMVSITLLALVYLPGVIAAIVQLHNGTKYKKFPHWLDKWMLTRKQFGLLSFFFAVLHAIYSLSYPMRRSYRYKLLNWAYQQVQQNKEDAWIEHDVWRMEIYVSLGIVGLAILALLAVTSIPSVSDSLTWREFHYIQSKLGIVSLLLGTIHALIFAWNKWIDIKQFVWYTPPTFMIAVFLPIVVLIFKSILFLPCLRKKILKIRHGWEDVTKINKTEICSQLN
T2 sequence (Q9UHE8 other isoform, or with tags, fused parts or gaps): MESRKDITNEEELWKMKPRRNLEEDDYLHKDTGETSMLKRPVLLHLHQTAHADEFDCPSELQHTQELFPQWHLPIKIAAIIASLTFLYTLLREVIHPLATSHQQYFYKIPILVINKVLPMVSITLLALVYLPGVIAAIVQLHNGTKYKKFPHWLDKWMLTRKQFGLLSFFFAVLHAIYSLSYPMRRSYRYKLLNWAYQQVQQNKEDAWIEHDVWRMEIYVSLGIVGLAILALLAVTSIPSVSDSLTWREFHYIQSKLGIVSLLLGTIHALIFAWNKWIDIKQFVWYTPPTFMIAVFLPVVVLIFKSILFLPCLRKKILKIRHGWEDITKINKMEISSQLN

B1: 37 Phage (Fab, V domains shown)
VH: EVQLVESGGGLVQPGGSLRLSCAASGYSITSDYAWNWIRQAPGKGLEWVGYISNSGSTSYNPSLKSRFTISRDNSKNTLYLQMNSLRAEDTAVYYCARERNYDYDDYYYAMDYWGQGTLVTVSS
VL: DIQMTQSPSSLSASVGDRVTITCKSSQSLLYRSNQKNYLAWYQQKPGKAPKLLIYWASTRESGVPSRFSGSGSGTDFTLTISSLQPEDFATYYCQQYYNYPRTFGQGTKVEIKR
notes: monovalent Fab-g3 phage display; also called V37I variant of the 120 graft
With B1, the binding result with human STEAP-1 [1] is “binds”.

B2: Original Thio 120V24 (antibody, V domains shown)
VH: B1 VH with A24V, I38V
VL: B1 VL
notes: cysteine engineered form of humanized 120.v24; also called Orig Thio PUR 12813; Thio Mab
Consider B2, for which the Kd was 1.9 nM with human STEAP-1 [2]; 1.4 nM with human STEAP-1 [3]; 1.7 nM with human STEAP-1 [4]; 1.7 nM with human STEAP-1 [5]; 2 nM with human STEAP-1 [6]; 1.4 nM with human STEAP-1 [7]. In addition, the Kd (in experiment [8]; with human STEAP-1 [9]) was 1.1 nM each time.

B3: 67 Phage (Fab, V domains shown)
VH: B1 VH with I38V, F68I
VL: B1 VL
notes: monovalent Fab-g3 phage display; also called F67I variant of the 120 graft
For B3, in the experiment with human STEAP-1 [1], the binding result is “binds”.

B4: 48 Phage (Fab, V domains shown)
VH: B1 VH with I38V, V49M
VL: B1 VL
notes: monovalent Fab-g3 phage display; also called V48M variant of the 120 graft
Consider B4, for which the binding result with human STEAP-1 [1] is recorded as “binds”.

B5: humanized anti-STEAP-1 120v.24 (antibody, name in Kabat numbering, V domains shown)
VH: B1 VH with A24V, I38V
VL: B1 VL
notes: constant regions not specified; also called humanized 120v.24 (clone 67); humanized version 24
In the case of B5, in the experiment with human STEAP-1 [10], the “fold improvement in Kd over the 120 chimera and murine M2-120.545” value is 2 fold.
